The text below walks through data of the supplement of paper PMC10126150.

± gives the standard deviation of the averaged measurements.

The subject of this data set is ATP. As to the kind of experiment: switch fluorescence ratio, 500 uM ATP over buffer (Cy3 cluster intensity, sum of 5 cycles each) (fold (ratio)); higher = stronger signal-on switching upon ATP binding; sequences stand for … in TCGTCGGCAGCGTCAGATGTGTATAAGAGACAGTTTTTTTTTTTTTTTTTTTTTTTTT…TC. The note with it: aptamer strand: ATP DNA aptamer (quencher-CACCTGGGGGAGTATTGCGGAGGAAGG + anchor), 100 nM annealed; ATP concentration: 500 uM. The method, boiled down: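 Clusters with intensities outside 100-1000 RFU were excluded. The remaining Cy3-labelled switching-strand clusters on a modified Illumina MiSeq flow-cell had been annealed to 100 nM quencher-labelled ATP aptamer and imaged in selection buffer, then after 15 min with 500 uM ATP at 22 °C, for five cycles separated by NaOH stripping and re-annealing. The fluorescence ratio, averaged per switch-domain sequence, is each cluster's summed target-cycle Cy3 intensity over its summed buffer-cycle Cy3 intensity.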
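Note: ATP exposure 15 min at 22 °C before imaging.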

With GACTCAGAGG, the switch fluorescence ratio was 1.03 ± 0.011.
Consider CTGGGACCTA, for which the switch fluorescence ratio stood at 1.02 ± 0.027.
Consider ACGCTCATGT, for which the switch fluorescence ratio is 1.05 ± 0.013.
The result for GGTTTTAGAT reads 0.9977 ± 0.0072; that for GCATGGCGGC, 1.01 ± 0.019.
Take ACGGGCAACG: the switch fluorescence ratio is 0.9743 ± 0.0065.
Then AACTTGTCAT, with 1 ± 0.0063; and TTTACGTAGG, with 1 ± 0.024.
The result for ACTGTTGTTG reads 1.006 ± 0.01; that for TCCAGCGCAC, 3.81 ± 1.1; that for TGTGGTTCGA, 0.972 ± 0.011.
ACGTCAGTTG: the switch fluorescence ratio was 0.975 ± 0.012.
The result for CAGAAAGGAC reads 1.02 ± 0.031; that for ATAGGGTGTG, 1.02 ± 0.076; that for CCGATGAGCT, 1.42 ± 0.035.
For the sequence AGGGTGATTG, the switch fluorescence ratio was determined as 1.009 ± 0.0077.
As to TGATGCAAGA, the switch fluorescence ratio came out at 1.3 ± 0.063.
Then GTTGGTTCGT, with 1.02 ± 0.034; and TAATTTTGTT, with 1.02 ± 0.019; and GCCAGGGTCA, with 1.025 ± 0.0066.
Then GGGGTTATGG, with 0.984 ± 0.041; and TTAACGCGTT, with 1.0063 ± 0.00089.
Then GGCCGTTTTC, with 1.01 ± 0.00017.
Turning to AGGGAATTGG, the switch fluorescence ratio worked out at 1.01 ± 0.044.
The result for AGTTGGTAG reads 1.02 ± 0.033; that for ACCATTAATT, 0.991 ± 0.029.
On to TTTTACGCT, for which the switch fluorescence ratio worked out at 1.03 ± 0.06.
Regarding CAACTTGAAG, the switch fluorescence ratio turned out to be 0.977 ± 0.02.
The result for GCTCTATGAC reads 1.08 ± 0.044.
Then AGACTGGTAC, with 1.156 ± 0.0022.
Then TCGATGCAGC, with 1.45 ± 0.31.
Regarding ACCCTGTTGG, the switch fluorescence ratio came out at 1.01 ± 0.029.
The result for TCATTAATAG reads 0.996 ± 0.012; that for ATACGAAGGG, 0.985 ± 0.059; that for GCACGGATGT, 1.029 ± 0.0097.
The result for GATGAATGAC reads 1.02 ± 0.016.
Then CGTATTTCTT, with 0.989 ± 0.021; and TTGTGAGTCT, with 1.01 ± 0.011.
On to TAATCGCTAA, for which the switch fluorescence ratio came to 1.13 ± 0.14.
Consider CAATAGGCAG, for which the switch fluorescence ratio was determined as 0.9824 ± 0.0053.
Then TATCGGTCTA, with 1.006 ± 0.005; and AAAAATTCAG, with 0.987 ± 0.045; and GGATGGCTCG, with 0.993 ± 0.051.
Take GCGTGGAGA: the switch fluorescence ratio is 1 ± 0.03.
Then AGGGGGGGTT, with 0.992 ± 0.033; and AGTGTGGTGG, with 0.98944 ± 7.4e-05.
Regarding GAGATGGGGA, the switch fluorescence ratio is 0.991 ± 0.022.
In the case of TTTAAGGAGG, the switch fluorescence ratio amounted to 1.03 ± 0.071.
GAGATCATTG: the switch fluorescence ratio came out at 1.07 ± 0.057.
For the sequence ACGATGTTGG, the switch fluorescence ratio amounted to 0.994 ± 0.023.
For TTTAGTGAGG, the switch fluorescence ratio was 0.974 ± 0.03.
Take TGGGTGCGGT: the switch fluorescence ratio turned out to be 0.991 ± 0.012.
The result for GTGGGGTTAT reads 1 ± 0.013; that for CACAATAGAT, 1.02 ± 0.022.
The result for TTTGGGTATG reads 0.992 ± 0.026; that for TAATGGGGAC, 0.967 ± 0.03.
As to AGATCTGGGG, the switch fluorescence ratio worked out at 1.04 ± 0.036.
Then TACTAAGGGG, with 1.04 ± 0.041.
Then GGATTGGGGG, with 0.995 ± 0.02.
Regarding CACGTGCCAG, the switch fluorescence ratio stood at 0.985 ± 0.043.
Then AGTTCAAACC, with 1.04 ± 0.062; and TGAAATGGCT, with 0.997 ± 0.034.
Take CAATCGACTC: the switch fluorescence ratio was 1.047 ± 0.0037.
Then AGGCCCGAGC, with 0.98 ± 0.073.
For the sequence ATTAAATGAT, the switch fluorescence ratio is 0.9574 ± 0.002.
Then TATGCTTATA, with 0.98 ± 0.014; and GGATGGATTG, with 1.004 ± 0.0022.
Then AGTTCTTTGT, with 0.985 ± 0.024.
For CGCGAGATAT, the switch fluorescence ratio came out at 1.03 ± 0.043.
The result for AGGTTTAAGG reads 0.9726 ± 0.0058; that for TTAGTTATAC, 1.78 ± 0.59; that for TAAAGGTTCT, 1.02 ± 0.03.
For ACCTATCTTG, the switch fluorescence ratio came out at 1.03 ± 0.016.
The result for CATGAGGGGG reads 1.01 ± 0.059; that for ACCGGGCGCC, 0.967 ± 0.027; that for GGATTGGAGT, 0.977 ± 0.02.
The result for GTGTGAGGAG reads 1.05 ± 0.081; that for CGTTGGGGG, 0.963 ± 0.029; that for TCGCAGGATA, 1.08 ± 0.012.
The result for TCGGCCGCTG reads 1.05 ± 0.064; that for TTGCGTTTGA, 1.008 ± 0.005.
For the sequence TGTGTCTATA, the switch fluorescence ratio was 0.97698 ± 0.00069.
Then TTTAATGGGG, with 1.02 ± 0.035; and GCAAAAAGGA, with 1.6 ± 0.89.
For ATAATATGTG, the switch fluorescence ratio was 0.997 ± 0.029.
As to TAATGAGGGA, the switch fluorescence ratio was determined as 1 ± 0.038.
Then AATAGGGCAG, with 1.009 ± 0.0078.
Then ATGTGGATGC, with 0.98 ± 0.045; and TTGTGGAACG, with 0.989 ± 0.019; and AAAAGACGG, with 1 ± 0.062.
The result for CCGTGTTTCT reads 0.9916 ± 0.0033; that for CCAAGTAATT, 1.2 ± 0.019.
As to AGTTGATGGT, the switch fluorescence ratio stood at 0.96898 ± 0.00096.
Then TATTTTGAAG, with 1.07 ± 0.13; and TTTTACACTT, with 1.04 ± 0.017; and GGTTGACCCC, with 0.978 ± 0.027.
Then TAGAATTAGG, with 0.987 ± 0.037.
The result for AGTAGGGCGG reads 1 ± 0.033; that for GAGTTTGAAA, 0.993 ± 0.041; that for CGTATAGTTA, 0.987 ± 0.022.
With ACTATTATCT, the switch fluorescence ratio was determined as 1.023 ± 0.0099.
The result for ATTAGGGGAG reads 0.972 ± 0.0028; that for AAAATGGATG, 0.983 ± 0.031; that for CATTTTAGGC, 1.04 ± 0.067.
The result for GTTAGGGGAG reads 1 ± 0.042; that for AGGCGATAAT, 1.12 ± 0.13; that for AGTTGGTGTT, 0.958 ± 0.026.
Turning to AGTTTAGATG, the switch fluorescence ratio came to 0.968 ± 0.02.
Then CCTGGAGTTA, with 1.04 ± 0.1.
Turning to ATGCGCACCG, the switch fluorescence ratio was determined as 1.05 ± 0.023.
With TTAGTGATCT, the switch fluorescence ratio is 0.998 ± 0.015.
The result for AATAACAAAA reads 0.995 ± 0.037; that for ATAGACGTTA, 1.07 ± 0.049; that for ATAGATGTCT, 0.992 ± 0.019.
The result for GTTGGCGGGT reads 1 ± 0.017.
As to GGGGTTTTGG, the switch fluorescence ratio stood at 0.995 ± 0.025.
The result for CAATATTTG reads 0.994 ± 0.015; that for GTATGAGGTG, 1.02 ± 0.044.
As to TTTCATGGGG, the switch fluorescence ratio was found to be 1.014 ± 0.0049.
Then GCGCGACGGA, with 0.9905 ± 0.0014.
